# Measured values taken from patent publication US20180155451A1 (published 2018).
# T1: FcγRIIb (human, UniProt P31994 43-217)
# T1 construct: extracellular domain; also called FcgRIIb; 2b
# T1 sequence (looked up): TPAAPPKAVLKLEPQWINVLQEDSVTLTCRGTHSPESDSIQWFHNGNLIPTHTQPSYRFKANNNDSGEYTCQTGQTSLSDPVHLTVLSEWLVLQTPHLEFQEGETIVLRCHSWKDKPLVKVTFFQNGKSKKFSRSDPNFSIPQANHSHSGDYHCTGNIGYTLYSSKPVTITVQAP
# B1: GpH7-A5/GpH7-B3 variant Y300_02A/GpL16-k0 (antibody, human IgG1, kappa)
# heavy 1: not shown
# heavy 2: not shown
# light: DIVMTQSPLSLPVTPGEPASISCQASESLVHSNRNTYLHWYLQKPGQSPQLLIYKVSNRFSGVPDRFSGSGSGTDFTLKISRVEAEDVGVYYCSQNTHVPPTFGQGTKVEIERTVAAPSVFIFPPSDEQLKSGTASVVCLLNNFYPREAKVQWKVDNALQSGNSQESVTEQDSKDSTYSLSSTLTLSKADYEKHKVYACEVTHQGLSSPVTKSFNRGEC
# notes: heterodimerized IgG1, one H chain mutated; also called He Ab
# B2: GpH7-A5/GpH7-B3 variant Y300_11K/GpL16-k0 (antibody, human IgG1, kappa)
# heavy 1: not shown
# heavy 2: not shown
# light: B1 light
# notes: as for B1
# B3: GpH7-A5/GpH7-B3 variant Y300_08L/GpL16-k0 (antibody, human IgG1, kappa)
# heavy 1: not shown
# heavy 2: not shown
# light: B1 light
# notes: as for B1
# B4: GpH7-A5/GpH7-B3 variant Y300_14T/GpL16-k0 (antibody, human IgG1, kappa)
# heavy 1: not shown
# heavy 2: not shown
# light: B1 light
# notes: as for B1
# B5: GpH7-A5/GpH7-B3 variant Y300_07I/GpL16-k0 (antibody, human IgG1, kappa)
# heavy 1: not shown
# heavy 2: not shown
# light: B1 light
# notes: as for B1
# B6: GpH7-A5/GpH7-B3 variant Y300_06M/GpL16-k0 (antibody, human IgG1, kappa)
# heavy 1: not shown
# heavy 2: not shown
# light: B1 light
# notes: as for B1
# B7: GpH7-A5/GpH7-B3 variant Y300_13S/GpL16-k0 (antibody, human IgG1, kappa)
# heavy 1: not shown
# heavy 2: not shown
# light: B1 light
# notes: as for B1
# B8: GpH7-A5/GpH7-B3 variant Y300_12R/GpL16-k0 (antibody, human IgG1, kappa)
# heavy 1: not shown
# heavy 2: not shown
# light: B1 light
# notes: as for B1
# B9: GpH7-A5/GpH7-B3 variant Y300_09D/GpL16-k0 (antibody, human IgG1, kappa)
# heavy 1: not shown
# heavy 2: not shown
# light: B1 light
# notes: as for B1
# B10: GpH7-A5/GpH7-B3 variant Y300_16H/GpL16-k0 (antibody, human IgG1, kappa)
# heavy 1: not shown
# heavy 2: not shown
# light: B1 light
# notes: as for B1
# B11: GpH7-A5/GpH7-B3 variant Y300_05P/GpL16-k0 (antibody, human IgG1, kappa)
# heavy 1: not shown
# heavy 2: not shown
# light: B1 light
# notes: as for B1
# B12: GpH7-A5/GpH7-B3 variant Y300_03V/GpL16-k0 (antibody, human IgG1, kappa)
# heavy 1: not shown
# heavy 2: not shown
# light: B1 light
# notes: as for B1
# B13: GpH7-A5/GpH7-B3 variant Y300_20W/GpL16-k0 (antibody, human IgG1, kappa)
# heavy 1: not shown
# heavy 2: not shown
# light: B1 light
# notes: as for B1
# B14: GpH7-B3 variant Y300_01G/GpL16-k0 (antibody, human IgG1, kappa)
# heavy: not shown
# light: B1 light
# notes: homodimerized IgG1; mutation in both H chains; also called Ho Ab
# B15: GpH7-B3 variant Y300_03V/GpL16-k0 (antibody, human IgG1, kappa)
# heavy: not shown
# light: B1 light
# notes: as for B14
# B16: GpH7-B3 variant T335_16H/GpL16-k0 (antibody, human IgG1, kappa)
# heavy: not shown
# light: B1 light
# notes: as for B14
# B17: GpH7-B3 variant Y296_20W/GpL16-k0 (antibody, human IgG1, kappa)
# heavy: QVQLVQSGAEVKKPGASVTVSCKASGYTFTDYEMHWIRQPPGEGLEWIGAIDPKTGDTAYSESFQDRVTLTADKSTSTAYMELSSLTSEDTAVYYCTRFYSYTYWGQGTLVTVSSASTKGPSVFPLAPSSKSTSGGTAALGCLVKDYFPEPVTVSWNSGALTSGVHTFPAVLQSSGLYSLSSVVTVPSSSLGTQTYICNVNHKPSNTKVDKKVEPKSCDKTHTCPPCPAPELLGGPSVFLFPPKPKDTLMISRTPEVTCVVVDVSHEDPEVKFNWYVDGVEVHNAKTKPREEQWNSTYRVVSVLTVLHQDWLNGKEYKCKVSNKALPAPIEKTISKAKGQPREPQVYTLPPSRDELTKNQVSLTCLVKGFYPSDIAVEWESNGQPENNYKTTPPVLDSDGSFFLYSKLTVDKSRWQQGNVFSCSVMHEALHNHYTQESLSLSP
# light: B1 light
# notes: as for B14
# B18: GpH7-B3 variant Y296_16H/GpL16-k0 (antibody, human IgG1, kappa)
# heavy: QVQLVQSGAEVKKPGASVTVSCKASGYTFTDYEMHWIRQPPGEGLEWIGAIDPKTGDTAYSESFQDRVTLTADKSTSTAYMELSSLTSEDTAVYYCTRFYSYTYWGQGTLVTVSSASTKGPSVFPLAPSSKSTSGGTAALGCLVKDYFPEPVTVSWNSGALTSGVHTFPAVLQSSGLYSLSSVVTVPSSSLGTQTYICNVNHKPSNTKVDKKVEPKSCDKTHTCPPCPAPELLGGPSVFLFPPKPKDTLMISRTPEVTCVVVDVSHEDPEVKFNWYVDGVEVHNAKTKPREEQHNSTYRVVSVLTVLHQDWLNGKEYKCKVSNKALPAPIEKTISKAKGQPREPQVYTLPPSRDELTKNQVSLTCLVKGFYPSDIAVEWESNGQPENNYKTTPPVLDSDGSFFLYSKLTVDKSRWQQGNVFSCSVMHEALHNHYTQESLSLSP
# light: B1 light
# notes: as for B14
# B19: GpH7-B3 variant Y296_19Q/GpL16-k0 (antibody, human IgG1, kappa)
# heavy: not shown
# light: B1 light
# notes: as for B14
# B20: GpH7-B3 variant Y296_10E/GpL16-k0 (antibody, human IgG1, kappa)
# heavy: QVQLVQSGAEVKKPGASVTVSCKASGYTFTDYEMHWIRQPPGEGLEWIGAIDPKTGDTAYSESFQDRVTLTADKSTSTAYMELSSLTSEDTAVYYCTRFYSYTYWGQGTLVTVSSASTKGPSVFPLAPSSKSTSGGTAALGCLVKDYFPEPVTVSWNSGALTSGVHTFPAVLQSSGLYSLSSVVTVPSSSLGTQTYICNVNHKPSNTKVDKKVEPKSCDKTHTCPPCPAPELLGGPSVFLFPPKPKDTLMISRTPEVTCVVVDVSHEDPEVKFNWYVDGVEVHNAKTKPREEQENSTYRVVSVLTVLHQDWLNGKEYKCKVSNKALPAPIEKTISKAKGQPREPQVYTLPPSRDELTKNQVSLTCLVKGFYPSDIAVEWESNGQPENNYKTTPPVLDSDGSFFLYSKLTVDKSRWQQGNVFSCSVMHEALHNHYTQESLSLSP
# light: B1 light
# notes: as for B14
# B21: GpH7-B3 variant Y300_10E/GpL16-k0 (antibody, human IgG1, kappa)
# heavy: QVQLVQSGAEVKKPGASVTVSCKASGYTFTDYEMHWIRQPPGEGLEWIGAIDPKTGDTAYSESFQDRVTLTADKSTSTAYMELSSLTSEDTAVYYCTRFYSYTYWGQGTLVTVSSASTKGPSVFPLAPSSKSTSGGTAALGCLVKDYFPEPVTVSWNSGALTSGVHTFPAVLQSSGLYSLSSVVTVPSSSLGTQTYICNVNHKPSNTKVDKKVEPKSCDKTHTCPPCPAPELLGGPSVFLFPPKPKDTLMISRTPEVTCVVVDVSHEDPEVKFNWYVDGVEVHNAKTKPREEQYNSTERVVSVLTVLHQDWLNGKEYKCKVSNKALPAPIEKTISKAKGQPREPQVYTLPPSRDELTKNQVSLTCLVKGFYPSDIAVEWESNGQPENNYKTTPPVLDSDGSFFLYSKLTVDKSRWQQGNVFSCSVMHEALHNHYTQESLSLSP
# light: B1 light
# notes: as for B14
# B22: GpH7-B3 variant Y300_13S/GpL16-k0 (antibody, human IgG1, kappa)
# heavy: not shown
# light: B1 light
# notes: as for B14
# B23: GpH7-B3 variant Y300_06M/GpL16-k0 (antibody, human IgG1, kappa)
# heavy: not shown
# light: B1 light
# notes: as for B14
# B24: GpH7-B3 variant Y296_18N/GpL16-k0 (antibody, human IgG1, kappa)
# heavy: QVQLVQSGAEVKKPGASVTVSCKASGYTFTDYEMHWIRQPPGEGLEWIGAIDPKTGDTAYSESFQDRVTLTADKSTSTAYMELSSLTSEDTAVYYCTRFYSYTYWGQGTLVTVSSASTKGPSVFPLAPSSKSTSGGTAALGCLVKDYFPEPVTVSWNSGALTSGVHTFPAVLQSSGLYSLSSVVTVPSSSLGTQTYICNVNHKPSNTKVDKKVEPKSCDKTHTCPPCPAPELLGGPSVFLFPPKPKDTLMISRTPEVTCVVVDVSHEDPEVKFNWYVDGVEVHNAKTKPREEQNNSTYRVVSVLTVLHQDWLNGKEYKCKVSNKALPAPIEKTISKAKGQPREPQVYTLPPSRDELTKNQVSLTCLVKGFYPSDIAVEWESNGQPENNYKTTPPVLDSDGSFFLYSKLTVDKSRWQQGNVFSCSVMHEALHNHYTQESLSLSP
# light: B1 light
# notes: as for B14
# B25: GpH7-B3 variant Y296_06M/GpL16-k0 (antibody, human IgG1, kappa)
# heavy: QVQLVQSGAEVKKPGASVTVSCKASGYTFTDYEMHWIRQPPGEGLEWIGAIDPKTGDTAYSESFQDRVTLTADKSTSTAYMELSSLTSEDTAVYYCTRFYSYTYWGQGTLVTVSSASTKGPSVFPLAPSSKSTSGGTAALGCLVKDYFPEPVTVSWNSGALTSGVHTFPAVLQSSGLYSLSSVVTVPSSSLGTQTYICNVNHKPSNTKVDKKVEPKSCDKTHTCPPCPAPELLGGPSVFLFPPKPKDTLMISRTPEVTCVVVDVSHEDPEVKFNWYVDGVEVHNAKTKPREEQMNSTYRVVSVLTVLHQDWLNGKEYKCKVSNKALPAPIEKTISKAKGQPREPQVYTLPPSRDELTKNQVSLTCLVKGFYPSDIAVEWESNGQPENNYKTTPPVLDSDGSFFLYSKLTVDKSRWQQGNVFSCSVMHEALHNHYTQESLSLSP
# light: B1 light
# notes: as for B14
# B26: GpH7-B3 variant Y296_13S/GpL16-k0 (antibody, human IgG1, kappa)
# heavy: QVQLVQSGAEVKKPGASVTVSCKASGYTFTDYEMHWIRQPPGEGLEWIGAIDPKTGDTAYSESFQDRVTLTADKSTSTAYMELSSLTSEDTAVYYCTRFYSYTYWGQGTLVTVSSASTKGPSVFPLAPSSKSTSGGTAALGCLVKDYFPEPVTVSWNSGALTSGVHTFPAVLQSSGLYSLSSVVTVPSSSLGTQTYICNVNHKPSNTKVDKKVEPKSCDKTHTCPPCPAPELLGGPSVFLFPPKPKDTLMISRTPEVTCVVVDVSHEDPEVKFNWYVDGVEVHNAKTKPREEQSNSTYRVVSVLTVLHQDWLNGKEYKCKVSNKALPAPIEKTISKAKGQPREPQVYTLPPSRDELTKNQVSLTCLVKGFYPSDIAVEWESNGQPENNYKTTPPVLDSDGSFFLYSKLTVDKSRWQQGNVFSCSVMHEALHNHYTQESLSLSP
# light: B1 light
# notes: as for B14
# B27: GpH7-B3 variant T335_18N/GpL16-k0 (antibody, human IgG1, kappa)
# heavy: not shown
# light: B1 light
# notes: as for B14
# B28: GpH7-B3 variant Y300_11K/GpL16-k0 (antibody, human IgG1, kappa)
# heavy: not shown
# light: B1 light
# notes: as for B14
# B29: GpH7-B3 variant Y296_14T/GpL16-k0 (antibody, human IgG1, kappa)
# heavy: not shown
# light: B1 light
# notes: as for B14
# B30: GpH7-B3 variant T335_19Q/GpL16-k0 (antibody, human IgG1, kappa)
# heavy: not shown
# light: B1 light
# notes: as for B14
# B31: GpH7-B3 variant Y300_02A/GpL16-k0 (antibody, human IgG1, kappa)
# heavy: not shown
# light: B1 light
# notes: as for B14
# B32: GpH7-B3 variant Y296_12R/GpL16-k0 (antibody, human IgG1, kappa)
# heavy: not shown
# light: B1 light
# notes: as for B14
# B33: GpH7-B3 variant Y300_08L/GpL16-k0 (antibody, human IgG1, kappa)
# heavy: not shown
# light: B1 light
# notes: as for B14
# B34: GpH7-B3 variant Y296_11K/GpL16-k0 (antibody, human IgG1, kappa)
# heavy: not shown
# light: B1 light
# notes: as for B14
# B35: GpH7-B3 variant T335_20W/GpL16-k0 (antibody, human IgG1, kappa)
# heavy: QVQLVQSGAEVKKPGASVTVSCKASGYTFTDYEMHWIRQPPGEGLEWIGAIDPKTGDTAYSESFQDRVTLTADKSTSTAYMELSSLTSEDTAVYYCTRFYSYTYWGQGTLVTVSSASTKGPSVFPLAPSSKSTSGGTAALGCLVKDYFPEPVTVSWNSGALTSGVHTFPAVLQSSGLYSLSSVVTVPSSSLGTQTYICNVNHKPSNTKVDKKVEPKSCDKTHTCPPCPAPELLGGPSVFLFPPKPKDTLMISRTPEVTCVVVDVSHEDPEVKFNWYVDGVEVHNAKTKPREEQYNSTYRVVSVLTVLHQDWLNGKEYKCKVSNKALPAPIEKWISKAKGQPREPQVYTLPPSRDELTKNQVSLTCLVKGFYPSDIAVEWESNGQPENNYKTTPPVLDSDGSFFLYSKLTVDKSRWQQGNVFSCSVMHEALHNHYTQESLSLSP
# light: B1 light
# notes: as for B14
# B36: GpH7-B3 variant Y300_09D/GpL16-k0 (antibody, human IgG1, kappa)
# heavy: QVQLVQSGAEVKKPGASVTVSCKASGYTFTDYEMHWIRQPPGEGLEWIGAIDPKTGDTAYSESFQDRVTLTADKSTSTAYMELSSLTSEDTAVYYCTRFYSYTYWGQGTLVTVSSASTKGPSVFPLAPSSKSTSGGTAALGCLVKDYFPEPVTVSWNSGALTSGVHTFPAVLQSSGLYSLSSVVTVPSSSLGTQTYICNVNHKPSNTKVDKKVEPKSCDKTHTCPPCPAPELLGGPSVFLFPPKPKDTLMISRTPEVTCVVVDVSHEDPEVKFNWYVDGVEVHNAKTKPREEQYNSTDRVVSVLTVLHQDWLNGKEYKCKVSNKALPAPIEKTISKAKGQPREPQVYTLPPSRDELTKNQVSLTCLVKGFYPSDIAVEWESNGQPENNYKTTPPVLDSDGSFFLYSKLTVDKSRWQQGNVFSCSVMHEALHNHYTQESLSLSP
# light: B1 light
# notes: as for B14
# B37: GpH7-A5/GpH7-B3 variant L328_12R/GpL16-k0 (antibody, human IgG1, kappa)
# heavy 1: not shown
# heavy 2: not shown
# light: B1 light
# notes: He Ab: heterodimerized anti-glypican-3 IgG1, substitution in one H chain only; also called He Ab L328R
# B38: GpH7-A5/GpH7-B3 variant L328_11K/GpL16-k0 (antibody, human IgG1, kappa)
# heavy 1: not shown
# heavy 2: not shown
# light: B1 light
# notes: He Ab: heterodimerized anti-glypican-3 IgG1, substitution in one H chain only; also called He Ab L328K
# Molecular target: T2, FcγRIa (human, UniProt P12314 16-292)
# T2 construct: extracellular domain; also called FcgRI; FcgRIa
# Assay: SPR (Biacore), relative to GpH7-A5/GpH7-B3/GpL16-k0 = 100
# T2 sequence (P12314 16-292): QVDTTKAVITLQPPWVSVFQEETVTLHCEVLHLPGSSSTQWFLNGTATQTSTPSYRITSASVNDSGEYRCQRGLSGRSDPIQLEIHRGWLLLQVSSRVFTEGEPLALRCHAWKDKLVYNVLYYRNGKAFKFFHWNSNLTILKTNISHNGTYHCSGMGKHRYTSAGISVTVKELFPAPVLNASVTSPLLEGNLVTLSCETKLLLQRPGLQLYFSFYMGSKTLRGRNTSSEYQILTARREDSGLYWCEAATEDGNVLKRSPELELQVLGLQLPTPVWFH
row,He/Con_1a (Ia binding),Binder
1,112 relative (control = 100),B1
2,107 relative (control = 100),B2
3,113 relative (control = 100),B3
4,112 relative (control = 100),B4
5,108 relative (control = 100),B5
6,112 relative (control = 100),B6
7,111 relative (control = 100),B7
8,105 relative (control = 100),B8
9,112 relative (control = 100),B9
10,111 relative (control = 100),B10
11,60.2 relative (control = 100),B11
12,117 relative (control = 100),B12
13,112 relative (control = 100),B13

# Molecular target: T1, FcγRIIb
# Assay: as above
row,He/Con_2b (IIb binding),Binder
1,69.2 relative (control = 100),B1
2,51.6 relative (control = 100),B2
3,73.6 relative (control = 100),B3
4,55.6 relative (control = 100),B4
5,74.5 relative (control = 100),B5
6,84.3 relative (control = 100),B6
7,53.9 relative (control = 100),B7
8,41.2 relative (control = 100),B8
9,93.2 relative (control = 100),B9
10,87 relative (control = 100),B10
11,7.3 relative (control = 100),B11
12,73.9 relative (control = 100),B12
13,84.1 relative (control = 100),B13

# Molecular target: T3, FcγRIa (human, UniProt P12314 16-292)
# T3 construct: extracellular domain; also called FcgRI; CD64; not shown: C-terminal His tag
# Assay: SPR (Biacore), antibody captured on antigen peptide chip, FcγRIa as analyte; relative binding amount
# Experimental: (§1) Analysis of interaction between objective antibody and the FcγR was carried out using Biacore T100 (GE Healthcare). HBS-EP+ (GE Healthcare) was used as the running buffer, and the measurement temperature was set to 25° C. Chips produced by immobilizing the antigen peptide by the amine coupling method to a Series S Sencor Chip CM5 (GE Healthcare), or alternatively, chips produced by allowing preliminarily biotinylated antigen peptides to interact with and immobilize onto a Series S Sensor Chip SA (certified) (GE Healthcare) were used. Antibodies of interest were captured onto an antigen peptide-immobilized chip, and allowed to interact to each FcγR diluted with running buffer. To regenerate and repeatedly use the chip, the antibodies captured on the chip were washed off by reacting 10 mM glycine-HCl, pH 1.5.
# T3 sequence (P12314 16-292): as above
row,Ho/Con_1a,Binder
1,109 % of control (GpH7-B3/GpL16-k0 = 100),B14
2,112 % of control (GpH7-B3/GpL16-k0 = 100),B15
3,104 % of control (GpH7-B3/GpL16-k0 = 100),B16
4,106 % of control (GpH7-B3/GpL16-k0 = 100),B17
5,105 % of control (GpH7-B3/GpL16-k0 = 100),B18
6,104 % of control (GpH7-B3/GpL16-k0 = 100),B19
7,106 % of control (GpH7-B3/GpL16-k0 = 100),B20
8,111 % of control (GpH7-B3/GpL16-k0 = 100),B21
9,110 % of control (GpH7-B3/GpL16-k0 = 100),B22
10,111 % of control (GpH7-B3/GpL16-k0 = 100),B23
11,105 % of control (GpH7-B3/GpL16-k0 = 100),B24
12,104 % of control (GpH7-B3/GpL16-k0 = 100),B25
13,105 % of control (GpH7-B3/GpL16-k0 = 100),B26
14,102 % of control (GpH7-B3/GpL16-k0 = 100),B27
15,101 % of control (GpH7-B3/GpL16-k0 = 100),B28
16,105 % of control (GpH7-B3/GpL16-k0 = 100),B29
17,105 % of control (GpH7-B3/GpL16-k0 = 100),B30
18,110 % of control (GpH7-B3/GpL16-k0 = 100),B31
19,103 % of control (GpH7-B3/GpL16-k0 = 100),B32
20,109 % of control (GpH7-B3/GpL16-k0 = 100),B33
21,102 % of control (GpH7-B3/GpL16-k0 = 100),B34
22,104 % of control (GpH7-B3/GpL16-k0 = 100),B35
23,111 % of control (GpH7-B3/GpL16-k0 = 100),B36

# Molecular target: T2, FcγRIa
# Assay: SPR (Biacore); He/Con_1a (FcgRIa) divided by He/Con_2b (FcgRIIb)
# Experimental: (§2) The heterodimerized antibodies He Abs in which one of the H chains was introduced with an alteration were assayed for their binding activities to each activating FcγR and inhibitory FcγR according to the method described in Example 4. […] The activating FcγRs in FIGS. 26, 27, 28, and 29 are FcγRIa, FcγRIIa (R), FcγRIIa (H), and FcγRIIIa, respectively.
# as §1
row,Ia/IIb He_1a/2b,Binder
1,1.62,B1
2,2.07,B2
3,1.54,B3
4,2.01,B4
5,1.45,B5
6,1.33,B6
7,2.06,B7
8,2.54,B8
9,1.21,B9
10,1.27,B10
11,8.22,B11
12,1.58,B12
13,1.34,B13

# Molecular target: T4, FcγRIa extracellular domain with C-terminal His tag (human, UniProt P12314 16-292)
# T4 construct: extracellular domain; Soluble receptor expressed in FreeStyle293 cells; analyte in Biacore; also called FcgRI; FcgRIa; not shown: His tag at the C terminus
# Assay: SPR (Biacore); He/Con_1a divided by He/Con_2b (FcγRIIb)
# Experimental: as §2, §1
# T4 sequence (P12314 16-292): as above
row,He_1a/2b (Ia/IIb),Binder
1,8.51,B37
2,10.5,B38

# Molecular target: T4, FcγRIa extracellular domain with …
# Assay: SPR (Biacore), antibody captured on antigen peptide chip, FcγR as analyte; binding relative to GpH7-A5/GpH7-B3/GpL16-k0 = 100
# Experimental: as §2, §1
row,He/Con_1a (Ia binding),Binder
1,78.6 % of control (control = 100),B37
2,79.2 % of control (control = 100),B38
